The values below come from PMC5743070 (The Journal of Biological Chemistry, 2017).

Assay [1] has as its target T1, TTD (UHRF1_121–286) (Homo sapiens, UniProt Q96T88).
T1 construct: UHRF1_121–286 corresponding to the TTD; made in house
T1 sequence (Q96T88 121-286): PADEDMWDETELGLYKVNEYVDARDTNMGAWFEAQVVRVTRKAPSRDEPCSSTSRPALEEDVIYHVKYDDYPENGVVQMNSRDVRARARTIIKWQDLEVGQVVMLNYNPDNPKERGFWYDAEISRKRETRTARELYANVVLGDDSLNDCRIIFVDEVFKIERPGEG
In words: HSQC competition of BPC and linker peptide on TTD. In kind it is binding. The settings on record: BPC 2.4 mM, linker peptide 3.0 mM, 5% DMSO; I211, I212 and E281 resonances in HSQC. As to the method:
NMR samples were buffered in 20 mM sodium phosphate (pH 7.5), 150 mM NaCl, 5 mM DTT, 5 mM β-mercaptoethanol, 2 mM TCEP, and 10 μM ZnSO4. The protein concentration was between 200 and 300 μM for all samples. The data were collected at 25 °C on Bruker spectrometers equipped with cryoprobes and operating at 500, 600, or 800 MHz. The assignment of backbone TTD–PHD resonances was accomplished using the ABACUS method ([29]) for which standard backbone and ^15N-edited NOESY spectra were collected using ^15N/^13C/^2H- or ^15N/^13C-labeled protein. All 3D experiments were acquired using non-uniform sampling and processed using the software MDDGUI ([30]) or qMDD ([31]). ^15N-Labeled TTD–PHD was used to acquire ^15N T1 and T2 relaxation and ^1H-^15N heteronuclear NOE measurements ([32]) collected using standard Bruker pulse schemes in an interleaved manner. For T1 measurements, the variable delay was set to 0.1, 0.4, 0.8, 1.5, 2.0, 2.5, 3.5, and 5 s. For T2 measurements, the variable delay was set to 16, 32, 48, 64, 80, 96, 128, and 144 ms. The D1 was 3 s for all experiments. Reported values were the average from two measurements. All spectra were processed using NMRPipe ([33]) and analyzed with SPARKY ([34]). […]
trated by the perturbation of I211, I212 and E281 resonances in HSQC spectra of the TTD in a competition assay. […]

For assay [2], the target named is T2, TTD–PHD (UHRF1_126–366) (Homo sapiens, UniProt Q96T88).
T2 construct: His tag (TEV-cleavable) (N); made in house
T2 sequence (Q96T88 126-366): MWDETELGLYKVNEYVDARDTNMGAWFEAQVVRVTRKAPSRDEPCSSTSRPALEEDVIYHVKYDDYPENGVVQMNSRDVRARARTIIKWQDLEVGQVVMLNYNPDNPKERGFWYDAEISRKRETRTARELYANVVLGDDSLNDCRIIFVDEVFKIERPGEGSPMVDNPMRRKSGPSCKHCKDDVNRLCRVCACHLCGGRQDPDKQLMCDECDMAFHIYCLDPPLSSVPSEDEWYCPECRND
As to the kind of experiment: (1H-15N) TROSY NMR titration of TTD–PHD. Type of assay: binding. As to the method: Exchange broadening is clearly observed for Arg^282, Gly^284, Asp^291, Asn^292, Met^294, and Ser^301 amide resonances at 1:3 protein/BPC ratios, with perturbations also seen with Gly^286 and Gly^299 (Fig. 4 and supplemental Fig. S6).
(§1) NMR samples were buffered in 20 mM sodium phosphate (pH 7.5), 150 mM NaCl, 5 mM DTT, 5 mM β-mercaptoethanol, 2 mM TCEP, and 10 μM ZnSO4. The protein concentration was between 200 and 300 μM for all samples. The data were collected at 25 °C on Bruker spectrometers equipped with cryoprobes and operating at 500, 600, or 800 MHz. The assignment of backbone TTD–PHD resonances was accomplished using the ABACUS method ([29]) for which standard backbone and ^15N-edited NOESY spectra were collected using ^15N/^13C/^2H- or ^15N/^13C-labeled protein. All 3D experiments were acquired using non-uniform sampling and processed using the software MDDGUI ([30]) or qMDD ([31]). ^15N-Labeled TTD–PHD was used to acquire ^15N T1 and T2 relaxation and ^1H-^15N heteronuclear NOE measurements ([32]) collected using standard Bruker pulse schemes in an interleaved manner. For T1 measurements, the variable delay was set to 0.1, 0.4, 0.8, 1.5, 2.0, 2.5, 3.5, and 5 s. For T2 measurements, the variable delay was set to 16, 32, 48, 64, 80, 96, 128, and 144 ms. The D1 was 3 s for all experiments. Reported values were the average from two measurements. All spectra were processed using NMRPipe ([33]) and analyzed with SPARKY ([34]).

Assay [3] addresses T1, TTD (UHRF1_121–286). In words: (1H-15N) HSQC NMR titration of TTD. In kind it is binding. The conditions noted are these: (1H-15N) HSQC spectra of TTD.
Source text: We designed a fragment library containing 2,040 compounds that was initially screened against isolated TTD (UHRF1_121–286) using a fluorescence polarization (FP) assay that tracked the displacement of a N-terminally tagged H3K9me3 peptide (H3K9me3(1–25)). From this screen, eight putative TTD-binding hits were identified. […] Because of limited commercial availability of the tricyclic amine, we focused only on BPC. The binding of this compound occurs close to (or within) the Arg^296-binding pocket; we observe significant perturbation of Trp^238 and Phe^278 resonances that form part of the pocket, and in Gly^236, which is directly adjacent to it (Fig. 4A and supplemental Fig. S5). We also see chemical shift changes in non-surface exposed residues that are close to or are in contact with the groove.
as §1
Figure S5 (related to Fig. 4)
Binding of BPC in the groove of TTD. […]
labeled (at the N-terminus) H3K9me3(1-25) peptide, (B) ITC, and (C) DSF. (D) KD estimates of BPC bind-ing based on I211 and Y239 amide peak movement (where Δ(ppm) = ((ΔδHN)2 + (ΔδN/6.5)2 )1⁄2) in (1H-15N) HSQC spectra when the TTD is titrated with BPC. […]
as a function of TTD sequence resulting from BPC (blue) or PBR peptide (red) binding. (F) HSQC overlays […]
ment:protein), and PBR peptide ratios (bottom spectrum - from 1:1 to 5:1 peptide:protein). The protein con-centration was ~250 µM for all NMR experiments, and the DMSO concentration was 5% for NMR titrations […]
(§2) (1 picture or pasted object on this page, not shown here)

Assay [4] addresses T2, TTD–PHD (UHRF1_126–366). In words: ITC of H3 peptide binding to TTD–PHD. The procedure:
A preliminary peptide injection of 0.06 μl was followed by subsequent 2-μl injections into the sample cell containing 167 μl of 50 μM TTD–PHD. Where indicated, 1.5 mM BPC or 1.5 mM PBR peptide was included in the injection syringe and sample cell. The reported KD and n values are based on the average from two measurements. For ITC measurements of TTD (UHRF1_121–286) interaction with BPC, the protein was buffered in 20 mM Tris (pH 7.4), 50 mM NaCl, and 5% DMSO. BPC was brought to a concentration of 2.5 mM and injected into the sample cell containing 40 μM protein. The data were acquired on a Nano ITC from TA Instruments at 25 °C and fitted with an independent-binding site model using NanoAnalyze software (v3.7.0).
ITC curves showing TTD-PHD binding to methylated (red) and unmethylated (black) H3 peptide.
as §2

Regarding “linker peptide: linker peptide (corresponding to UHRF1286-300) (GSPMVDNPMRRKSGP; UniProt Q96T88 286-300, looked up, fragment) [reference compound]”, the “competition for the TTD groove” value with TTD (UHRF1_121–286) [1] was “compete directly for the TTD groove”.
Turning to “PBR peptide: 15-residue peptide corresponding to the PBR (UHRF1_643–657) (GKGKWKRKSAGGGPS; UniProt Q96T88 643-657, looked up, fragment) [reference compound]”, the “effect on linker resonances of TTD–PHD” value in the assay with TTD–PHD (UHRF1_126–366) [2] ((1H-15N) TROSY, ~250 μM protein/750 μM ligand) was “strikingly similar peak broadening/perturbation pattern”. Further, the “effect on TTD–PHD conformation” value with TTD–PHD (UHRF1_126–366) [2] (Fig. 4) is on record as “promote open TTD–PHD conformations”. In addition, in the assay with TTD (UHRF1_121–286) [3], the “binding site on TTD by amide peak movement” value was “binding in the groove”. Also, in the assay with TTD–PHD (UHRF1_126–366) [4] (1.5 mM BPC (4% DMSO) or 1.5 mM PBR peptide, H3K9me3(1–15)), the “effect on TTD–PHD binding affinity for the histone peptide” value was “reduces the TTD–PHD binding affinity for the histone peptide”. Also, the “increase of KD for H3K9me3 (effect of added ligand)” value with TTD–PHD (UHRF1_126–366) [4] (1.5 mM BPC or PBR peptide in syringe and cell, vs apo TTD–PHD) is given as around 5 fold.
